Results taken from patent publication US20230295597.
Residue numbers refer to the chain shown, from its start. Names may count otherwise.

T1: von Willebrand factor (vWF), substrate of the ADAMTS-13 activity assay, P04275
T1 chain: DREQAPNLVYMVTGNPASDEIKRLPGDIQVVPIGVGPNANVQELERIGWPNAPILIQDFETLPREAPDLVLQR

B1: truncated recombinant human ADAMTS-13 variant (MDTCS), trADAMTS-13 WT (protein)
chain: RSAAGGILHLELLVAVGPDVFQAHQEDTERYVLTNLNIGAELLRDPSLGAQFRVHLVKMVILTEPEGAPNITANLTSSLLSVCGWSQTINPEDDTDPGHADLVLYITRFDLELPDGNRQVRGVTQLGGACSPTWSCLITEDTGFDLGVTIAHEIGHSFGLEHDGAPGSGCGPSGHVMASDGAAPRAGLAWSPCSRRQLLSLLSAGRARCVWDPPRPQPGSAGHPPDAQPGLYYSANEQCRVAFGPKAVACTFAREHLDMCQALSCHTDPLDQSSCSRLLVPLLDGTECGVEKWCSKGRCRSLVELTPIAAVHGRWSSWGPRSPCSRSCGGGVVTRRRQCNNPRPAFGGRACVGADLQAEMCNTQACEKTQLEFMSQQCARTDGQPLRSSPGGASFYHWGAAVPHSQGDALCRHMCRAIGESFIMKRGDSFLDGTRCMPSGPREDGTLSLCVSGSCRTFGCDGRMDSQQVWDRCQVCGGDNSTCSPRKGSFTAGRAREYVTFLTVTPNLTSVYIANHRPLFTHLAVRIGGRYVVAGKMSISPNTTYPSLLEDGRVEYRVALTEDRLPRLEEIRIWGPLQEDADIQVYRRYGEEYGNLTRPDITFTYFQPKPRQADYKDHDGDYKDHDIDYKDDDDK
B2: trADAMTS-13^V313D (truncated ADAMTS-13 mutant, Val313 to Asp) (protein)
chain: AAGGILHLELLVAVGPDVFQAHQEDTERYVLTNLNIGAELLRDPSLGAQFRVHLVKMVILTEPEGAPNITANLTSSLLSVCGWSQTINPEDDTDPGHADLVLYITRFDLELPDGNRQVRGVTQLGGACSPTWSCLITEDTGFDLGVTIAHEIGHSFGLEHDGAPGSGCGPSGHVMASDGAAPRAGLAWSPCSRRQLLSLLSAGRARCVWDPPRPQPGSAGHPPDAQPGLYYSANEQCRDAFGPKAVACTFAREHLDMCQALSCHTDPLDQSSCSRLLVPLLDGTECGVEKWCSKGRCRSLVELTPIAAVHGRWSSWGPRSPCSRSCGGGVVTRRRQCNNPRPAFGGRACVGADLQAEMCNTQACEKTQLEFMSQQCARTDGQPLRSSPGGASFYHWGAAVPHSQGDALCRHMCRAIGESFIMKRGDSFLDGTRCMPSGPREDGTLSLCVSGSCRTFGCDGRMDSQQVWDRCQVCGGDNSTCSPRKGSFTAGRAREYVTFLTVTPNLTSVYIANHRPLFTHLAVRIGGRYVVAGKMSISPNTTYPSLLEDGRVEYRVALTEDRLPRLEEIRIWGPLQEDADIQVYRRYGEEYGNLTRPDITFTYFQPKPRQADYKDHDGDYKDHDIDYKDDDDK
B3: trADAMTS-13^R312K (truncated ADAMTS-13 mutant, Arg312 to Lys) (protein)
chain: B2 chain with R238K, D239V
B4: trADAMTS-13^R312A (truncated ADAMTS-13 mutant, Arg312 to Ala) (protein)
chain: B2 chain with R238A, D239V
B5: trADAMTS-13^V313A (truncated ADAMTS-13 mutant, Val313 to Ala) (protein)
chain: B2 chain with D239A

Key:
[1] = target: ultralarge von Willebrand factor multimers present in human plasma, P04275
[2] = target: T1, von Willebrand factor (vWF), substrate …
[3] = target: anti ADAMTS-13 autoantibodies in plasma from patients with acquired ADAMTS-13 deficiency (TTP plasma)

Protein | catalytic activity on vWF [2] | also measured
B1 | – | proteolysis of vWF multimers in human plasma, trADAMTS-13 300 nM, Western blot with anti-vWF antibody [1]: the inactivation of trADAMTS-13 by tPA prevented the proteolysis of ULvWV multimers present in human plasma (FIG. 4D)
B2 | – | decrease of proteolytic activity on vWF against the un-mutated variant [2]: replacing V^313 with D (trADAMTS-13^V313D) decreased by more than 50% the proteolytic activity of the resultant ADAMTS-13 variant on vWF (FIG. 6B)
B3 | trADAMTS-13^R312K was the most potent variant exhibiting enhanced proteolytic activity on vWF (FIG. 6B), in comparison with the un-mutated protein trADAMTS-13 WT | proteolytic activity on vWF after 2 hours or 24 hours with TTP plasma [3]: The substantial resistance to inhibition of trADAMTS-13^R312K was shown around 2 hours up to 24 hours following incubation with TTP plasma (FIG. 9B)
B4 | trADAMTS-13^R312A catalytic activity was not affected significantly by replacing R^312 with A (FIG. 6B) | –
B5 | Replacing V^313 with A (trADAMTS-13^V313A), also had no significant effect on its proteolytic activity on vWF (FIG. 6B) | –
